Results published in patent US20190330338A1 (UNIVERSITY OF UTAH RESEARCH FOUNDATION, published 2019).
Where two headings read alike, the source gives them in different places.

Key:
recombinant CD229 [1] = target: T1, recombinant CD229 (human, UniProt Q9HBG7 48-454, limits assumed); test: flow cytometry of 293T cells expressing the CAR, stained with APC-labeled recombinant CD229
T1 construct: Labeled with allophycocyanin in the CAR flow cytometry assay; also called APC-labeled recombinant CD229; immobilized recombinant CD229
T1 sequence (looked up): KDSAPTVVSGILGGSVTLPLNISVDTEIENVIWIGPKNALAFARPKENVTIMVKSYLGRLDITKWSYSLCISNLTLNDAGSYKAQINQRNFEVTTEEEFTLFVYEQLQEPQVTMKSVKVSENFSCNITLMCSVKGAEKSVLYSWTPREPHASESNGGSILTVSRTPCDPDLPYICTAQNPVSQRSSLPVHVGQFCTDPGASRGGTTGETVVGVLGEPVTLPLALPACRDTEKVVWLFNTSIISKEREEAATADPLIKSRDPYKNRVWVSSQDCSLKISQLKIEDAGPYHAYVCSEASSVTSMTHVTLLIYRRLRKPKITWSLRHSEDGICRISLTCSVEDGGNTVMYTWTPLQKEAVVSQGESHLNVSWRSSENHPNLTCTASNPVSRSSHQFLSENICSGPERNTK
Method: In the final CAR construct, the scFv can be joined directly to a 45 amino acid hinge domain, which can alter binding properties of the antibodies. […] 20 of the 23 unique scFv binders still recognized CD229 with the new C-terminal fusion partner. All 23 unique binders were cloned into the CAR vector (FIG. 7D). The second-generation CAR construct uses a CD8α hinge and transmembrane domain with a CD3ζ signaling and a 4-1BB costimulatory domain. In addition, a hemagglutinin (HA) tag was added between the scFv and hinge domains to allow the simultaneous assessment of antigen binding and surface expression (FIG. 7D).

recombinant CD229 [2] = target: T2, recombinant CD229 (human, UniProt Q9HBG7 48-454); test: SPR
T2 chain: T1 sequence (looked up)

recombinant CD229 [3] = target: T2, recombinant CD229; test: SPR
recombinant CD229 [4] = target: T1, recombinant CD229; test: competition SPR on immobilized CD229
Source text: FIGS. 5A, 5B, 5C, 5D, and 5E show the binding, cross-reactivity, and selectivity of anti CD229 CAR T cells. (A) Cross-reactivity screening of 2 anti-CD229 antibody clones expressed as scFv-Fc constructs in mammalian cells by TRF assay using recombinant SLAM family members. […] (B) Cytotoxic activity of primary human T cells expressing CAR constructs based on two antibodies or GFP alone against CD229 positive myeloma cell line U266 and healthy autologous T cells as determined by flow cytometry. Anti-CD229 CARs specifically kill myeloma cells but not healthy T cells co-expressing CD229. […] (E) Competition SPR using immobilized CD229 and sequential injections of the primary antibodies followed by individual injection of antibodies to determine their ability to compete for the epitope recognized by the primary antibody. 1D5 and 2D3 occupy the same epitope space while 2A2 binds to a distinct epitope. Due to the lack of self-competition, 2A2 most likely binds to an epitope occurring twice in recombinant CD229, a tandem Ig domain-containing protein.

B1: anti-CD229 CAR construct, Clone 1A9 (other)
chain: QITLKESGPTLVKPTQTLTLTCTFSGFSLSTSGVGVGWIRQPPGKALEWLALIYWNDDKRYSPSLKSRLTIAKDTSKNQVVLTMTNMDPVDTATYYCARMGWNDPHMVDYWGQGTLVTVSSLEGGGGSGGGGSGGGASDIQMTQSPSSLSASVGDRVTITCRASQSIGSSLHWYQQKPGKAPKFLIYDASSLESGVPSRFSGSGSGTEFTLTISSLQPDDFATYYCQQYNSYPLTFGGGTKLEIKR
notes: CAR expressed on cells; not shown: HA tag, CD8alpha hinge and transmembrane domain, 4-1BB co-stimulatory and CD3zeta signaling domains
Recombinant CD229 [1]
  binding result: binds

B2: anti-CD229 antibody clone 2A2 expressed as scFv-Fc (Fc fusion)
chain: QMQLVQSGAEVKKPGSSVKVSCKASGGTFSSYAISWVRQAPGQGLEWMGGIIPIFGTANYAQKFQGRVTITADKSTSTAYMELSSLRSDDTAVYYCARDELWATNYYYMDVWGKGTLVTVSSLEGGGGSGGGGSGGGASQSALTQPRSVSGSPGQSVTISCTGTSSDVGSYNYVSWYQQSPGKAPKLMIYDVSNRPSGVSNRFSGSKSGNTASLTISGLQSEDEADYYCTSYGSYDIPVIFGGGTKLTVLG
notes: scFv fused C-terminally to an immunoglobulin Fc domain, expressed in mammalian cells; not shown: immunoglobulin Fc domain
Recombinant CD229 [2]
  Kd: 18.4 nM
Recombinant CD229 [3]
  Kd: 18.4 nM
Recombinant CD229 [4]
  binding result: binds

B3: anti-CD229 CAR construct, Clone 2A2 (other)
chain: B2 chain
notes: CAR expressed on cells; also called anti-CD229 CAR clone 2A2; not shown: HA tag, CD8alpha hinge and transmembrane domain, 4-1BB co-stimulatory and CD3zeta signaling domains
Recombinant CD229 [1]
  binding result: binds
